Results on six molecules are retold here after publication PMC5818171, “The role of conserved residues in Fdc decarboxylase in prenylated flavin mononucleotide oxidative maturation, cofactor isomerization, and catalysis” (The Journal of Biological Chemistry, 2017).

Series [1] concerns O=C(O)/C=C/c1ccccc1. In words: purified protein. As to conditions: 50 mM KCl, 50 mM NaPi, pH 6, 25 °C, prFMN holo-enzyme.
Series [2] has as its target A. niger Fdc1 (Aspergillus niger, UniProt A2QHE5). Conditions: purified and crystallized in the dark.
Substrate in series [3]: O=C(O)/C=C/c1ccccc1
In words: purified protein. Conditions: 50 mM KCl, 50 mM NaPi, pH 6, 25 °C, prFMN holo-enzyme. This is another data set of the same source.

Positions count from the first letter of the chain named. Names and notes keep the numbering of the source.

What is called Km is the concentration of substrate that gives half-maximal velocity. What is called kcat is the number of substrate molecules converted per active site and unit of time at saturation. Turning to “A. niger Fdc1 (Aspergillus niger CBS 513.88)”, in series [1], the Km was 10.0 ± 0.6 µM and the kcat stood at 9.4 ± 0.1 s⁻¹.
Turning to “A. niger Fdc1 (Aspergillus niger CBS 513.88; E282D)”, in series [1], the Km was 50 ± 10 µM and the kcat is 0.63 ± 0.04 s⁻¹.
As for `Cc1cc2c3c(c1C)C(C)(C)CC=[N+]3c1c(nc([O-])[nH]c1=O)N2C[C@H](O)[C@H](O)[C@H](O)COP(=O)(O)O` [prFMN^iminium], the crystal structure result in series [2] is on record as “the prFMN cofactor is exclusively in the iminium form”.

B1: S. cerevisiae Fdc1 (Saccharomyces cerevisiae S288C) (protein)
chain: MRKLNPALEFRDFIQVLKDEDDLIEITEEIDPNLEVGAIMRKAYESHLPAPLFKNLKGASKDLFSILGCPAGLRSKEKGDHGRIAHHLGLDPKTTIKEIIDYLLECKEKEPLPPITVPVSSAPCKTHILSEEKIHLQSLPTPYLHVSDGGKYLQTYGMWILQTPDKKWTNWSIARGMVVDDKHITGLVIKPQHIRQIADSWAAIGKANEIPFALCFGVPPAAILVSSMPIPEGVSESDYVGAILGESVPVVKCETNDLMVPATSEMVFEGTLSLTDTHLEGPFGEMHGYVFKSQGHPCPLYTVKAMSYRDNAILPVSNPGLCTDETHTLIGSLVATEAKELAIESGLPILDAFMPYEAQALWLILKVDLKGLQALKTTPEEFCKKVGDIYFRTKVGFIVHEIILVADDIDIFNFKEVIWAYVTRHTPVADQMAFDDVTSFPLAPFVSQSSRSKTMKGGKCVTNCIFRQQYERSFDYITCNFEKGYPKGLVDKVNENWKRYGYK
Consider B1, for which, in series [3], the Km stood at 25.5 ± 3.6 µM and the kcat came out at 10.5 ± 0.4 s⁻¹.

B2: S. cerevisiae Fdc1 (Saccharomyces cerevisiae S288C; E285D) (protein)
chain: B1 chain with E285D
As for B2, in series [3], the Km stood at 20.4 ± 3.6 µM and the kcat stood at 0.28 ± 0.01 s⁻¹.

B3: S. cerevisiae Fdc1 (Saccharomyces cerevisiae S288C; E280D) (protein)
chain: B1 chain with E280D
For B3, in series [3], the Km was 8.6 ± 1.5 µM and the kcat is 0.92 ± 0.03 s⁻¹.
